The source of these data is publication PMC3926522.

The target of data set [1] is T1, thrombin (human, UniProt P00734;P00734 315-363;364-622). As to the kind of experiment: whispering gallery mode microsphere resonator.
For data set [2], the target named is T1, thrombin. As to the kind of experiment: whispering gallery mode microsphere resonator. This is another data set of the same source.

As for CCAACCCAACGGTTGGTGTGGTTGG (structured_DNA, 5' amino) [anti-thrombin aptamer oligonucleotide], in the data set with thrombin [1], the Kd is approximately 1 µM.
Regarding TATGAATTCAATCCGTCGAGCAGAGTT (ssDNA, 5' amino) [non-thrombin (non-aptamer) oligonucleotide], in the data set with thrombin [2], the binding result is listed as “no binding”.
